# Test results taken from US20240116985A1 (published 2024).
# Starred links: 1 amine or outer side, 2 acyl side, 3 side chain; linkers in the order of their positions; H or OH if unused. Positions of bridges follow the written chain, without caps; N, C: chain ends. Non-standard residues stand in square brackets, D forms with d. Primed or numbered codes have the meaning given here. B5(15) = 2-amino-2-(pent-4-en-1-yl)hept-6-enoic acid (2,2-bis(4-pentenyl)glycine), stitching residue bearing two staples, C=CCCCC(CCCC=C)(N[*:1])C(=O)[*:2]; B5(23) = 2-amino-2-(pent-4-en-1-yl)hept-6-enoic acid (2,2-bis(4-pentenyl)glycine), stitching residue, C=CCCCC(CCCC=C)(N[*:1])C(=O)[*:2]; B5(4) = 2,2-bis(4-pentenyl)glycine = 2-amino-2-(pent-4-en-1-yl)hept-6-enoic acid (stitching residue), C=CCCCC(CCCC=C)(N[*:1])C(=O)[*:2]; B5(5) = 2,2-bis(4-pentenyl)glycine, 2-amino-2-(pent-4-en-1-yl)hept-6-enoic acid (stitching residue), C=CCCCC(CCCC=C)(N[*:1])C(=O)[*:2]; PyrS2 = (S)-3-amino-1-((pent-4-en-1-yloxy)carbonyl)pyrrolidine-3-carboxylic acid, C=CCCCOC(=O)N1CC[C@@](N[*:1])(C(=O)[*:2])C1; Phe(3-COOH) = N[C@@H](Cc1cccc(C(=O)O)c1)C(=O)O; Bta = N[C@@H](Cc1csc2ccccc12)C(=O)O; αAllylPro = C=CC[C@@]1(C(=O)O)CCCN1; tBuAla = CC(C)(C)C[C@H](N)C(=O)O; 3Thi = N[C@@H](Cc1ccsc1)C(=O)O; Cha = N[C@@H](CC1CCCCC1)C(=O)O; S8 = C=CCCCCCC[C@](C)(N)C(=O)O; hLeu = CC(C)CC[C@H](N)C(=O)O; PyrS2(4) = not defined here; hSer = N[C@@H](CCO)C(=O)O; Nle = CCCC[C@H](N)C(=O)O
# T1: B-cat-Halo (UniProt P35222 1-781)
# T1 sequence (looked up): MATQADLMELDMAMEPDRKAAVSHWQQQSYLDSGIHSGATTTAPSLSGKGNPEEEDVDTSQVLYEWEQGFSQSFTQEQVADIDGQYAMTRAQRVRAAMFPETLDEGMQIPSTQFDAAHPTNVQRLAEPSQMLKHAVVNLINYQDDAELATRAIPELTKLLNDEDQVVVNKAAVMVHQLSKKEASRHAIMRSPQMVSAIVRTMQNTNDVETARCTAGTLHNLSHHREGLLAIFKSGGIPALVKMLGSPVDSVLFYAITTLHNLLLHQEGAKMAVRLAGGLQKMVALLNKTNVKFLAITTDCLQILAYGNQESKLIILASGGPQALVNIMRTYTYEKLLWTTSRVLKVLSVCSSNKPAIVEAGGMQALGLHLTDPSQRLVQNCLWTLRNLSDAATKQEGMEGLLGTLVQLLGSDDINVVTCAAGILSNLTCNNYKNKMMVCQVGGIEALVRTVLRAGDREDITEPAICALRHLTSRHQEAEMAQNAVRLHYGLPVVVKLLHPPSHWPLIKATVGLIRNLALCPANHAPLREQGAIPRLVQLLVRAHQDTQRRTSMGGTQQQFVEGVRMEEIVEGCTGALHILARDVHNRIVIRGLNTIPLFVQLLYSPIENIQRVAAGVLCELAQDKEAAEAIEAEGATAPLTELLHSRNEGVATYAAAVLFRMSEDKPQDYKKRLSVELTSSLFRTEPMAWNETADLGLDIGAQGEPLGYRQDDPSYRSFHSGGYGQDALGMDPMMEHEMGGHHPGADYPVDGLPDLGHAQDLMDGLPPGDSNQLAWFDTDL
# T2: B-cat-Halo (beta-catenin HaloTag NanoBRET construct expressed in HEK293 cells) (UniProt P35222 1-781)
# T2 sequence (looked up): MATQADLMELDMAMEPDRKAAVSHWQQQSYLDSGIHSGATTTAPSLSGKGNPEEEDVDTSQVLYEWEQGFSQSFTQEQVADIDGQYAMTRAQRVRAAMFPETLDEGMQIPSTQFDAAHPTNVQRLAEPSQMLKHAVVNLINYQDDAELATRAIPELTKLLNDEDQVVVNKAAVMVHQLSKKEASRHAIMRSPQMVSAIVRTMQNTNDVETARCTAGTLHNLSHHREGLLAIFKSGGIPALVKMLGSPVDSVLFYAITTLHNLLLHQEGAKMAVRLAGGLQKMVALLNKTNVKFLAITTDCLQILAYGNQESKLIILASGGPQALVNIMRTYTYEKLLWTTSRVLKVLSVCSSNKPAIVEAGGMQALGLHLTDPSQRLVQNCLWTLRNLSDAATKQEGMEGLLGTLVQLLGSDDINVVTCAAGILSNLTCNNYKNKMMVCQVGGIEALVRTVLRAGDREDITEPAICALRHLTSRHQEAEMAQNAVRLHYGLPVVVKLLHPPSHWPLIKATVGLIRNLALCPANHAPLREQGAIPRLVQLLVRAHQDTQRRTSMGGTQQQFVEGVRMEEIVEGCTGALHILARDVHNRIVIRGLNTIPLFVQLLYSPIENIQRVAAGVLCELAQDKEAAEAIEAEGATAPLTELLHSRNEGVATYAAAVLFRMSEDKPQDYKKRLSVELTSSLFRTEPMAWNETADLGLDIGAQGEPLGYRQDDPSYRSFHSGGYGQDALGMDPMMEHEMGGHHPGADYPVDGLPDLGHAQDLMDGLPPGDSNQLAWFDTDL
# T3: B-cat-Halo (beta-catenin HaloTag NanoBRET construct expressed in HEK293 cells) (UniProt P35222 1-781, HaloTag NanoBRET 618 Ligand bound to the HaloTag)
# T3 sequence (looked up): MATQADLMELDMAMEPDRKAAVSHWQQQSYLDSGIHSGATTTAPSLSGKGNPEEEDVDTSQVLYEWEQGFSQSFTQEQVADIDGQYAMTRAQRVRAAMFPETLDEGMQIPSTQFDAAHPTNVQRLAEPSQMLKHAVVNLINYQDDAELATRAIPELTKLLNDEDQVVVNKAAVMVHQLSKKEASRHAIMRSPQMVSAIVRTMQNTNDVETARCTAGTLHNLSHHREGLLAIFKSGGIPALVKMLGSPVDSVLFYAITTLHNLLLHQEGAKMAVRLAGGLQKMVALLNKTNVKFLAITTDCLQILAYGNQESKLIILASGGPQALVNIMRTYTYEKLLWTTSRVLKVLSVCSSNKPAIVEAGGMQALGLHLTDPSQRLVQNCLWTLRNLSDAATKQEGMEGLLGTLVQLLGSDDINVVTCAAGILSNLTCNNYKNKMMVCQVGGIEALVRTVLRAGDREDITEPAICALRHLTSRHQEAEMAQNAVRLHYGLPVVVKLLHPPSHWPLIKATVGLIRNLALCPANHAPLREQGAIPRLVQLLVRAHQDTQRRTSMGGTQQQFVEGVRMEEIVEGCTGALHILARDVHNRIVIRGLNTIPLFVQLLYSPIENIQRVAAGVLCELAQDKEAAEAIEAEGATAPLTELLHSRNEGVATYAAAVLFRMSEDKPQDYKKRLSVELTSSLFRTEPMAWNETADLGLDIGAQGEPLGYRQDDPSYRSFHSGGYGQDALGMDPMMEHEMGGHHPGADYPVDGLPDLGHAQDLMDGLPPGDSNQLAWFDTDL
# B1: I-1543 (peptide)
# peptide: Ac-[αAllylPro]DQ[B5(15)]DEAAF[hSer][S8]F[Bta]Q-NH2
# modifications: staple 1-4, 4-11; not fully specified; printed as Ac-PL3-Asp-Gln-B5-Asp-Glu-Ala-Ala-Phe-Hse-S8-Phe-BztA-Gln-NH2
# B2: I-1538 (peptide)
# peptide: Ac-[αAllylPro]D[hLeu][B5(15)]DEAAF[hSer][S8]F[Bta]Q-NH2
# modifications: staple 1-4, 4-11; not fully specified; printed as Ac-PL3-Asp-Hleu-B5-Asp-Glu-Ala-Ala-Phe-Hse-S8-Phe-BztA-Gln-NH2
# B3: I-1537 (peptide)
# peptide: Ac-[αAllylPro]D[hLeu][B5(15)]DEAAF[hSer][S8]F[Bta]Q-NH2
# modifications: staple 1-4, 4-11; not fully specified; printed as Ac-PL3-Asp-Hleu-B5-Asp-Glu-Ala-Ala-Phe-Hse-S8-Phe-BztA-Gln-NH2
# B4: I-1542 (peptide)
# peptide: Ac-[αAllylPro]DQ[B5(15)]DEAAF[hSer][S8]F[Bta]Q-NH2
# modifications: staple 1-4, 4-11; not fully specified; printed as Ac-PL3-Asp-Gln-B5-Asp-Glu-Ala-Ala-Phe-Hse-S8-Phe-BztA-Gln-NH2
# B5: I-1520: Ac-PL3-Asp-Cha-B5-Asp-Asp-Ala-Ala-Phe-Leu-PyrS2-3Thi-BztA-Hse-NH2 (peptide)
# peptide: Ac-[αAllylPro]D[Cha][B5(5)]DDAAFL[PyrS2(4)][3Thi][Bta][hSer]-NH2
# modifications: staple 1-4, 4-11; not fully specified; printed as I-1520: Ac-PL3-Asp-Cha-B5-Asp-Asp-Ala-Ala-Phe-Leu-PyrS2-3Thi-BztA-Hse-NH2; reading uncertain
# Target: T1, B-cat-Halo
# Assay: cell-based or functional assay
row,Binder,NanoBRET Abs IC50 [µM]
1,"Ac-[αAllylPro]D[tBuAla][B5(4)]D[Phe(3-COOH)]AAFL[PyrS2][3Thi][Bta]NALALA-NH2 (staple 1-4, 4-11; also: earlier eluting staple isomer) [I-2281]",4.3

# Target: T2, B-cat-Halo (beta-catenin HaloTag …)
# Assay: cell-based or functional assay
row,Binder,NanoBRET Abs IC50 [µM]
1,B1,> 20
2,"Ac-[αAllylPro]D[hLeu][B5(15)]DEAAFL[S8]F[Bta]Q-NH2 (staple 1-4, 4-11) [I-1536]",18.4
3,B2,11.8
4,"Ac-[αAllylPro]D[tBuAla][B5(23)]NNAAFN[PyrS2][3Thi][Bta]Q-NH2 (staple 1-4, 4-11) [I-1555]",29.3
5,B3,13.9
6,B4,49.1
7,"Ac-[αAllylPro]D[hSer][B5(15)]DEAAF[hSer][S8]F[Bta]Q-NH2 (staple 1-4, 4-11; not fully specified) [I-1548]",> 20
8,"Ac-[αAllylPro]DF[B5(15)]DEAAFQ[S8]F[Bta]Q-NH2 (staple 1-4, 4-11) [I-1549]",11.6

# Target: T3, B-cat-Halo (beta-catenin HaloTag …)
# Assay: cell-based or functional assay
row,Binder,NanoBRET Abs IC50 [µM]
1,"Ac-[αAllylPro]D[Nle][B5(5)]DEAAFL[S8]F[Bta]Q-NH2 (staple 1-4, 4-11) [I-1523: Ac-PL3-Asp-nLeu-B5-Asp-Glu-Ala-Ala-Phe-Leu-S8-Phe-BztA-Gln-NH2]",8
2,"Ac-[αAllylPro]D[Nle][B5(5)]DEAAF[hSer][S8]F[Bta]Q-NH2 (staple 1-4, 4-11) [I-1525: Ac-PL3-Asp-nLeu-B5-Asp-Glu-Ala-Ala-Phe-Hse-S8-Phe-BztA-Gln-NH2]",10.8
3,"Ac-[αAllylPro]D[Nle][B5(5)]DEAAFQ[S8]F[Bta]Q-NH2 (staple 1-4, 4-11) [I-1522: Ac-PL3-Asp-nLeu-B5-Asp-Glu-Ala-Ala-Phe-Gln-S8-Phe-BztA-Gln-NH2]",5.8
4,"Ac-[αAllylPro]D[Nle][B5(5)]DEAAFQ[S8]F[Bta]Q-NH2 (staple 1-4, 4-11; also: staple isomer, earlier eluting HPLC peak) [I-1521: Ac-PL3-Asp-nLeu-B5-Asp-Glu-Ala-Ala-Phe-Gln-S8-Phe-BztA-Gln-NH2]",6
5,"Ac-[αAllylPro]D[Nle][B5(5)]DEAAF[hSer][S8]F[Bta]Q-NH2 (staple 1-4, 4-11; also: staple isomer, earlier eluting HPLC peak) [I-1524: Ac-PL3-Asp-nLeu-B5-Asp-Glu-Ala-Ala-Phe-Hse-S8-Phe-BztA-Gln-NH2]",8.1
6,B5,17.4
